Assay results reported in publication PMC12768534 (Science immunology, 2025).

Molecular target: mIL-21 (mouse, UniProt Q9ES17 18-146)
Assay: BLI; mIL-21 and 21h10 incubated in PBS or murine serum for 1-240 minutes at 37°C, then binding to mIL-21R
Details: both partners purified

- binding result: binds
B1: biotinylated mIL-21R (receptor)
chain: not shown
modifications: biotin (biotinylated)
notes: murine IL-21 receptor, biotinylated recombinant protein; Held on streptavidin biosensors by its biotin; limits and tags are the vendor's; also called murine IL-21 receptor; source: bought: Acro Biosystems Cat# ILR-M82E3
